Measured values published in the supplement of paper PMC5998384.

Assays:
[1] = system: HeLa Kyoto; experiment: solubility in G1/S (NP-40 vs SDS abundance) (log2 ratio); higher = more soluble; conditions: cell cycle stage: G1/S
[2] = system: HeLa Kyoto; experiment: melting temperature (median over replicates), in situ; higher = more thermally stable
[3] = system: HeLa Kyoto; experiment: thermal stability score vs G1/S (z-score of summed log2 fold changes over temperatures); higher = more thermally stable than in G1/S
[4] = system: HeLa Kyoto; experiment: solubility change mitosis vs G1/S (difference of NP-40 vs SDS log2 ratios) (log2 ratio difference); higher = more soluble in mitosis
[5] = cell cycle stage: early G1 (4.5 h after nocodazole release)
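For melting temperature (median over replicates), in situ in this document: HeLa Kyoto cells synchronized by double thymidine or nocodazole block, proteins quantified by TMT10plex mass spectrometry, three independent biological replicates.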
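For solubility change mitosis vs G1/S (difference of NP-40 vs SDS log2 ratios) in this document: synchronized HeLa Kyoto cells (double thymidine block for G1/S, nocodazole release for mitosis), protein amounts in NP-40 versus SDS lysates quantified by mass spectrometry, three biological replicates.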
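For solubility in G1/S (NP-40 vs SDS abundance) in this document: HeLa Kyoto cells arrested at G1/S by double thymidine block, proteins quantified by TMT10plex mass spectrometry in mild NP-40 versus SDS extracts, three biological replicates.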
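For thermal stability score vs G1/S (z-score of summed log2 fold changes over temperatures) in this document: synchronized HeLa Kyoto cells, proteins quantified by TMT10plex mass spectrometry, three biological replicates, mitosis taken 0.5 h after nocodazole release, G1/S directly after double thymidine block.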

| Substance | solubility in G1/S (log2) [1] | melting temperature ([2]; cell cycle stage: G1/S) [°C] | melting temperature ([2]; cell cycle stage: mitosis) [°C] | thermal stability score [3, 5] | thermal stability score ([3]; cell cycle stage: mitosis) | solubility change mitosis (log2) [4] |
| --- | --- | --- | --- | --- | --- | --- |
| MEASWRQVAGGRGRSRGRATAAPSGNGVHLRGAGGGREKGSVGAVPSGTSPGGVATTAAAGSRHSPAGSQALQTTAASELMSQKKFEEIKKANQAAARKLVEEQFSSSSEEGDEDFEGKQGKILANTFITYTTQTDGDTRELERTKQYVNEAFQAGAMTCLICIASVKRNQAVWSCSGCFCIFHMPCIQKWAKDSQFLVSSVTDDDFGKKDCPWPCPKCRFEYKRSETPSRYYCYCGKVEDPPLDPWLVPHSCGQVCEREFKPPCGHKCLLLCHPGPCPPCPKMVTTTCYCKKAKPIPRRCSAKEWSCQLPCGQKLLCGQHKCENPCHAGSCQPCPRVSRQKCVCGKKVAERSCASPLWHCDQVCGKTLPCGNHTCEQVCHVGACGECPRSGKRFCPCQKSKFSLPCTEDVPTCGDSCDKVLECGIHRCSQRCHRGPCETCRQEVEKHCRCGKHTKRMPCHKPYLCETKCVKMRDCQKHQCRRKCCPGNCPPCDQNCGRTLGCRNHKCPSVCHRGSCYPCPETVDVKCNCGNTKVTVPCGRERTTRPPKCKEQCSRPPTCHHTSQEKHRCHFGSCPPCHQPCQKVLEKCGHLCPAPCHDQALIKQTGRHQPTGPWEQPSEPAFIQTALPCPPCQVPIPMECLGKHEVSPLPCHAVGPYSCKRVCGRILDCQNHTCMKECHKVTKTDGCTGKNKAGPECLHCEEGCSKSRPLGCLHPCILRCHPGECPPCVQMLRIKCHCKITSLYVECRKITTADVNEKNLLSCCKNQCPKELPCGHRCKEMCHPGECPFNCNQKVKLRCPCKRIKKELQCNKVRENQVSIECDTTCKEMKRKASEIKEAEAKAALEEEKRRQQAELEAFENRLKGRRKKNRKRDEVAVELSLWQKHKYYLISVCGVVVVVFAWYITHDVN [NFXL1] | -0.509 | 50.2 | 50.5 | 1.02 | 1.56 | 0.0441 |
| MEATGTWALLLALALLLLLTLALSGTRARGHLPPGPTPLPLLGNLLQLRPGALYSGLMRLSKKYGPVFTIYLGPWRPVVVLVGQEAVREALGGQAEEFSGRGTVAMLEGTFDGHGVFFSNGERWRQLRKFTMLALRDLGMGKREGEELIQAEARCLVETFQGTEGRPFDPSLLLAQATSNVVCSLLFGLRFSYEDKEFQAVVRAAGGTLLGVSSQGGQTYEMFSWFLRPLPGPHKQLLHHVSTLAAFTVRQVQQHQGNLDASGPARDLVDAFLLKMAQEEQNPGTEFTNKNMLMTVIYLLFAGTMTVSTTVGYTLLLLMKYPHVQKWVREELNRELGAGQAPSLGDRTRLPYTDAVLHEAQRLLALVPMGIPRTLMRTTRFRGYTLPQGTEVFPLLGSILHDPNIFKHPEEFNPDRFLDADGRFRKHEAFLPFSLGKRVCLGEGLAKAELFLFFTTILQAFSLESPCPPDTLSLKPTVSGLFNIPPAFQLQVRPTDLHSTTQTR [CYP2S1] | -0.0959 | 57.4 | 57.4 | -1.27 | 0.83 | -0.159 |
| MECLRSLPCLLPRAMRLPRRTLCALALDVTSVGPPVAACGRRANLIGRSRAAQLCGPDRLRVAGEVHRFRTSDVSQATLASVAPVFTVTKFDKQGNVTSFERKKTELYQELGLQARDLRFQHVMSITVRNNRIIMRMEYLKAVITPECLLILDYRNLNLEQWLFRELPSQLSGEGQLVTYPLPFEFRAIEALLQYWINTLQGKLSILQPLILETLDALVDPKHSSVDRSKLHILLQNGKSLSELETDIKIFKESILEILDEEELLEELCVSKWSDPQVFEKSSAGIDHAEEMELLLENYYRLADDLSNAARELRVLIDDSQSIIFINLDSHRNVMMRLNLQLTMGTFSLSLFGLMGVAFGMNLESSLEEDHRIFWLITGIMFMGSGLIWRRLLSFLGRQLEAPLPPMMASLPKKTLLADRSMELKNSLRLDGLGSGRSILTNR [MRS2] | -0.297 | 55.4 | 54.5 | -1.88 | -2.56 | 0.124 |
| MED14 | -0.117 | 48.7 | 50.1 | 0.0685 | 1.11 | -0.0671 |
| MEDFARGAASPGPSRPGLVPVSIIGAEDEDFENELETNSEEQNSQFQSLEQVKRRPAHLMALLQHVALQFEPGPLLCCLHADMLGSLGPKEAKKAFLDFYHSFLEKTAVLRVPVPPNVAFELDRTRADLISEDVQRRFVQEVVQSQQVAVGRQLEDFRSKRLMGMTPWEQELAQLEAWVGRDRASYEARERHVAERLLMHLEEMQHTISTDEEKSAAVVNAIGLYMRHLGVRTKSGDKKSGRNFFRKKVMGNRRSDEPAKTKKGLSSILDAARWNRGEPQVPDFRHLKAEVDAEKPGATDRKGGVGMPSRDRNIGAPGQDTPGVSLHPLSLDSPDREPGADAPLELGDSSPQGPMSLESLAPPESTDEGAETESPEPGDEGEPGRSGLELEPEEPPGWRELVPPDTLHSLPKSQVKRQEVISELLVTEAAHVRMLRVLHDLFFQPMAECLFFPLEELQNIFPSLDELIEVHSLFLDRLMKRRQESGYLIEEIGDVLLARFDGAEGSWFQKISSRFCSRQSFALEQLKAKQRKDPRFCAFVQEAESRPRCRRLQLKDMIPTEMQRLTKYPLLLQSIGQNTEEPTEREKVELAAECCREILHHVNQAVRDMEDLLRLKDYQRRLDLSHLRQSSDPMLSEFKNLDITKKKLVHEGPLTWRVTKDKAVEVHVLLLDDLLLLLQRQDERLLLKSHSRTLTPTPDGKTMLRPVLRLTSAMTREVATDHKAFYVLFTWDQEAQIYELVAQTVSERKNWCALITETAGSLKVPAPASRPKPRPSPSSTREPLLSSSENGNGGRETSPADARTERILSDLLPFCRPGPEGQLAATALRKVLSLKQLLFPAEEDNGAGPPRDGDGVPGGGPLSPARTQEIQENLLSLEETMKQLEELEEEFCRLRPLLSQLGGNSVPQPGCT [ARHGEF1] | 0.0626 | 49.2 | 49.1 | 1.08 | 1.58 | -0.134 |
| MEDSEALGFEHMGLDPRLLQAVTDLGWSRPTLIQEKAIPLALEGKDLLARARTGSGKTAAYAIPMLQLLLHRKATGPVVEQAVRGLVLVPTKELARQAQSMIQQLATYCARDVRVANVSAAEDSVSQRAVLMEKPDVVVGTPSRILSHLQQDSLKLRDSLELLVVDEADLLFSFGFEEELKSLLCHLPRIYQAFLMSATFNEDVQALKELILHNPVTLKLQESQLPGPDQLQQFQVVCETEEDKFLLLYALLKLSLIRGKSLLFVNTLERSYRLRLFLEQFSIPTCVLNGELPLRSRCHIISQFNQGFYDCVIATDAEVLGAPVKGKRRGRGPKGDKASDPEAGVARGIDFHHVSAVLNFDLPPTPEAYIHRAGRTARANNPGIVLTFVLPTEQFHLGKIEELLSGENRGPILLPYQFRMEEIEGFRYRCRDAMRSVTKQAIREARLKEIKEELLHSEKLKTYFEDNPRDLQLLRHDLPLHPAVVKPHLGHVPDYLVPPALRGLVRPHKKRKKLSSSCRKAKRAKSQNPLRSFKHKGKKFRPTAKPS [DDX56] | -1.13 | 51.8 | 52 | 0.609 | 0.497 | 0.785 |
| MEDVEARFAHLLQPIRDLTKNWEVDVAAQLGEYLEELDQICISFDEGKTTMNFIEAALLIQGSACVYSKKVEYLYSLVYQALDFISGKRRAKQLSSVQEDRANGVASSGVPQEAENEFLSLDDFPDSRTNVDLKNDQTPSEVLIIPLLPMALVAPDEMEKNNNPLYSRQGEVLASRKDFRMNTCVPHPRGAFMLEPEGMSPMEPAGVSPMPGTQKDTGRTEEQPMEVSVCRSPVPALGFSQEPGPSPEGPMPLGGGEDEDAEEAVELPEASAPKAALEPKESRSPQQSAALPRRYMLREREGAPEPASCVKETPDPWQSLDPFDSLESKPFKKGRPYSVPPCVEEALGQKRKRKGAAKLQDFHQWYLAAYADHADSRRLRRKGPSFADMEVLYWTHVKEQLETLRKLQRREVAEQWLRPAEEDHLEDSLEDLGAADDFLEPEEYMEPEGADPREAADLDAVPMSLSYEELVRRNVELFIATSQKFVQETELSQRIRDWEDTVQPLLQEQEQHVPFDIHTYGDQLVSRFPQLNEWCPFAELVAGQPAFEVCRSMLASLQLANDYTVEITQQPGLEMAVDTMSLRLLTHQRAHKRFQTYAAPSMAQP [NCAPH2] | 0.197 | 48.5 | 48.6 | -0.208 | -0.203 | 0.0239 |
